One substance from article PMC3237428 can be followed below.

In the test the target is β-catenin (endogenous in HEK293 cells) (human (endogenous in HEK293)) (UniProt P35222). As to the kind of experiment: co-IP; reciprocal immunoprecipitation from stable HEK cell lysates with protein A/G agarose, anti-β-catenin antibody or rabbit antibody BsloC; western blot; 0.5% DDM. A general note: Immunoblotting shows a protein as a band on a membrane.
Chain of UniProt P35222 (P35222 whole entry): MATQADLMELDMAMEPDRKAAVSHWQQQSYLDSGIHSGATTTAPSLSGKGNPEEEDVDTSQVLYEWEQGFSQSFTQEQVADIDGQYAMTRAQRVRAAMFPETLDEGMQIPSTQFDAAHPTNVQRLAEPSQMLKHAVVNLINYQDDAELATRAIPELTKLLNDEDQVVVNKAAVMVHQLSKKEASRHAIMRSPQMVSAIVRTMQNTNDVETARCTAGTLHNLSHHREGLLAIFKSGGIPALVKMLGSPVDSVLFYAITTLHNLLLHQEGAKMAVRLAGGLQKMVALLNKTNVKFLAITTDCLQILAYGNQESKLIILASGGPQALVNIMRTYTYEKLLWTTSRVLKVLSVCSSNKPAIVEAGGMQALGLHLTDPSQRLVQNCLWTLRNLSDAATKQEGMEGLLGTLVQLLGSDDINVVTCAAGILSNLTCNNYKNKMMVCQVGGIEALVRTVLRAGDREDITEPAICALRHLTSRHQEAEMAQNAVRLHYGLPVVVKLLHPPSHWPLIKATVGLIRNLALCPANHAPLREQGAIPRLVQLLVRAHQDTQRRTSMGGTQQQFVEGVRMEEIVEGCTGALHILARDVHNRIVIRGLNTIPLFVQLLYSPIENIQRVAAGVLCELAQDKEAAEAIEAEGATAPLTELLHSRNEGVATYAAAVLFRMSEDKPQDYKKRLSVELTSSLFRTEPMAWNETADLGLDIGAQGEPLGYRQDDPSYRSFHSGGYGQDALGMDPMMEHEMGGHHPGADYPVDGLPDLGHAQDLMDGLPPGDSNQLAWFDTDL

As to “HSloΔS10 (HSlo deletion construct lacking the S10 region) (natural protein)”, the ratio of HSlo in β-catenin immunoprecipitates, wild type HSlo to HSloΔS10 (fold (wild type over HSloΔS10)) was found to be 4.
